Measured values from patent US12653899B2, “Multi-targeted, tunable, sustained delivery of payloads to charged avascular tissues” (Massachusetts Institute of Technology, priority 2019, dated 2026).

Tests used:
[1] = tested on: human cartilage explants (knee); assay: Quantitative uptake of cationic S-GFPs into human knee cartilage explants; type: in vitro ADME; settings: donor knee; PBS+1% BSA or BSF
From the text: Two human knee joint distal femurs were obtained through the Gift of Hope Organ and Tissue Donor Network (Itaska, IL). A Collins grade 0 normal knee was from a donor and a near-normal grade 1 from a person. (The Collins visual grading scale grades spans grades 0-4 [20], with grade 0=normal and grade 4=end stage osteoarthritis.) All procedures were approved by the Rush University Medical Center Institutional Review Board (ORA Number: 08082803IRB01-AM01) and the Committee on the Use of Humans as Experimental Subjects at MIT. […]
Experiments to quantify the uptake of GFPs into cartilage were started after the explants had been pre-equilibrated in culture medium for 48 h post-harvest. […] (Standard 96-well cell culture plates were not used because S-GFPs could stick to polystyrene even in the presence of BSA, leading to a loss of protein. In contrast, use of polypropylene with 1% BSA enabled complete recovery of fluorescence). […] At the same time, the fluorescence of the absorption bath was measured using a plate reader (Synergy H1, Biotek Instruments Inc.) (excitation: 485 nm, emission: 528 nm). […] At the end of the desorption in 10×PBS+1% BSA, cartilage explants were weighed and the fluorescence of the desorption bath was measured. […] The uptake ratio was calculated as the ratio of GFP concentration inside cartilage (mol/mg wet weight) to the final absorption bath concentration (mol/mL).

[2] = tested on: bovine cartilage explants; assay: GFP penetration into bovine cartilage explants (confocal microscopy); type: in vitro ADME
Method: Bovine cartilage explants were incubated for either 24 h or 8 days (37° C., 5% CO2) in 1 μM solutions of the cationic S-GFPs dissolved in PBS+1% BSA. Similarly, explants were placed in 1 μM solutions of the neutral GFPs for either 18 h or 26 h. In a separate series of experiments, bovine cartilage explants were cultured in ultra-low attachment cell culture plates (Corning) for a period of 8 days in 1 μM solutions of cationic S-GFPs dissolved in low glucose (1 g/L) DMEM (with no phenol red) with 10% fetal bovine serum (FBS) supplemented with 2 mM Lglutamine, 100 U/mL penicillin, […] streptomycin, […] amphotericin, 10 mM HEPES buffer, 0.1 mM nonessential amino acids (NEAA) and 0.4 mM proline (37° C., 5% CO2). Media changes were performed every 48 h, and fresh cationic S-GFP were added with each media change. At the end of all such experiments, explants were sectioned longitudinally into […] slices and washed with PBS. Primary bovine chondrocytes were incubated for 24 h (37° C., 5% CO2) in 100 nM solutions of GFPs dissolved in serum-free medium having the same composition as that described in the bovine cartilage harvest section. At the end of 24 h, chondrocytes were washed three times with heparin dissolved in PBS (20 U/mL) to remove non-internalized GFPs, fixed with 4% paraformaldehyde, stained with DAPI and washed with PBS. […]

Row | Substance | 24 h uptake ratio compared among cationic S-GFPs [1] | extent of penetration into cartilage explant ([2]; 24 h in PBS+1% BSA, 1 mm thick bovine explants) | localization within cartilage explant ([2]; by day 8 in PBS+1% BSA, bovine explants)
1 | +36 GFP: engineered supercharged green fluorescent protein carrier with net positive charge +36, SEQ ID NO: 4 | significantly lower compared to the other two GFP variants | did not | localized primarily inside chondrocytes throughout the tissue thickness
2 | +25 GFP: engineered supercharged green fluorescent protein carrier with net positive charge +25, SEQ ID NO: 3 | significantly lower compared to the other two GFP variants |  | 
